Laboratory results published in patent US20070282095.

What was measured:
[1] = biological target: blood coagulation factor 13 (Fibrogammin P) (UniProt P00488)
fibrinogen = fibrinogen (UniProt P02671)
fibrinogen, sequence (P02671 20-629, chain 1 of 3): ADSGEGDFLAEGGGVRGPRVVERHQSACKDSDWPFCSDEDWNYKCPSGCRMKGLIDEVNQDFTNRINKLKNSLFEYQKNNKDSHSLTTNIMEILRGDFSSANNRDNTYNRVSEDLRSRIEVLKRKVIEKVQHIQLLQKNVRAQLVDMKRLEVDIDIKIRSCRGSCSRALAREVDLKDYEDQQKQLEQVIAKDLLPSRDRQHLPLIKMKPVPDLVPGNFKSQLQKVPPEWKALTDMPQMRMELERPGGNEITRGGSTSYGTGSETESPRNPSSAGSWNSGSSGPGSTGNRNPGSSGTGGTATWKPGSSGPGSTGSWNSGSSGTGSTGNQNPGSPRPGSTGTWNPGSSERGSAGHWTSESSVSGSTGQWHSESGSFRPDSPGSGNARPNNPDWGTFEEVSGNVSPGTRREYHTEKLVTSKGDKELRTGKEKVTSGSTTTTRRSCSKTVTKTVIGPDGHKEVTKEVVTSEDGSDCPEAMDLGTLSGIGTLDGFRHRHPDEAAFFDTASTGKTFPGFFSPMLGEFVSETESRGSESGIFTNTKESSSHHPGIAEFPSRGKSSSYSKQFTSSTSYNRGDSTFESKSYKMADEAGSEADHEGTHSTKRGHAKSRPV
fibrinogen, sequence (chain, as listed by the source, chain 2 of 3): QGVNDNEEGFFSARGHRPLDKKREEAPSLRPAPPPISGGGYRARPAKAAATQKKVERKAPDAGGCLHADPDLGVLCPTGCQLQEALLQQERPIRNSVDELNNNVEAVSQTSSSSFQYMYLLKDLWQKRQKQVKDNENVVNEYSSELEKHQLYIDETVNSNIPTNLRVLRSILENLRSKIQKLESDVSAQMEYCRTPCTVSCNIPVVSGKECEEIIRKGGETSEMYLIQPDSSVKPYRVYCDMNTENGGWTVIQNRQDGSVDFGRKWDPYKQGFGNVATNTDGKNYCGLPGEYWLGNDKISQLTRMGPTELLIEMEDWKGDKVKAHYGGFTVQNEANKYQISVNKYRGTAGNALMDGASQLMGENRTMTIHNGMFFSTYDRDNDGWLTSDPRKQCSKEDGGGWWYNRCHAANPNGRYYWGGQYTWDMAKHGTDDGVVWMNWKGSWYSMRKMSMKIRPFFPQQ
fibrinogen, sequence (chain, as listed by the source, chain 3 of 3): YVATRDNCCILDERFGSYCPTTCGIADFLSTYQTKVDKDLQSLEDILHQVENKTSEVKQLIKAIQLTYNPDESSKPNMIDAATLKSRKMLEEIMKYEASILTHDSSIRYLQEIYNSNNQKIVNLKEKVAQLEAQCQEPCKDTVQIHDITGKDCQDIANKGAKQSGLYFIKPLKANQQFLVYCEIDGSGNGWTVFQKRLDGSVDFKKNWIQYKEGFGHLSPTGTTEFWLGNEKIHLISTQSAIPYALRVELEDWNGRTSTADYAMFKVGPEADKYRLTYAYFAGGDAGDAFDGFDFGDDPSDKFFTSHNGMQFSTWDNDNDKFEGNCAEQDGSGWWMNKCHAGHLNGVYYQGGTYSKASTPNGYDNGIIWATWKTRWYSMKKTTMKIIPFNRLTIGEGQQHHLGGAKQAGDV

blood coagulation factor 13 (Fibrogammin P), sequence (P00488 2-732, chain 1 of 2): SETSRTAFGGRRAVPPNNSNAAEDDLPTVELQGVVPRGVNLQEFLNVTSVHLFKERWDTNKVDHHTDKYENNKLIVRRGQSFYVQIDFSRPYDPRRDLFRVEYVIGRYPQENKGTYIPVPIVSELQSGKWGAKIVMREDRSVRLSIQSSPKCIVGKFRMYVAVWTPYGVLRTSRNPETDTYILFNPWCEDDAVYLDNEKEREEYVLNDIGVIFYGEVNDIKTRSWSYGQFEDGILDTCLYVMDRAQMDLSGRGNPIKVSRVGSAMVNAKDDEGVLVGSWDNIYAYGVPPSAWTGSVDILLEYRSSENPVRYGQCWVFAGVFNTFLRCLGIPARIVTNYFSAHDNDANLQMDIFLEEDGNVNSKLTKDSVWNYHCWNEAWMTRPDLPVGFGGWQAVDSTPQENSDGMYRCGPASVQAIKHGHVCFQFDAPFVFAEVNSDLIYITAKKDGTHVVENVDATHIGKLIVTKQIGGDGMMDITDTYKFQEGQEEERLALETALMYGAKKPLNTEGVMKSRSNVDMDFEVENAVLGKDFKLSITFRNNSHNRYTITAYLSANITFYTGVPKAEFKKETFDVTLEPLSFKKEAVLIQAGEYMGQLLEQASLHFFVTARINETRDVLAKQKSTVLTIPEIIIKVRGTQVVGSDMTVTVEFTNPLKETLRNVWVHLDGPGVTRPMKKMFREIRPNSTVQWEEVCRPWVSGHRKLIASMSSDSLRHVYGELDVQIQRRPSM
blood coagulation factor 13 (Fibrogammin P), sequence (chain, as listed by the source, chain 2 of 2): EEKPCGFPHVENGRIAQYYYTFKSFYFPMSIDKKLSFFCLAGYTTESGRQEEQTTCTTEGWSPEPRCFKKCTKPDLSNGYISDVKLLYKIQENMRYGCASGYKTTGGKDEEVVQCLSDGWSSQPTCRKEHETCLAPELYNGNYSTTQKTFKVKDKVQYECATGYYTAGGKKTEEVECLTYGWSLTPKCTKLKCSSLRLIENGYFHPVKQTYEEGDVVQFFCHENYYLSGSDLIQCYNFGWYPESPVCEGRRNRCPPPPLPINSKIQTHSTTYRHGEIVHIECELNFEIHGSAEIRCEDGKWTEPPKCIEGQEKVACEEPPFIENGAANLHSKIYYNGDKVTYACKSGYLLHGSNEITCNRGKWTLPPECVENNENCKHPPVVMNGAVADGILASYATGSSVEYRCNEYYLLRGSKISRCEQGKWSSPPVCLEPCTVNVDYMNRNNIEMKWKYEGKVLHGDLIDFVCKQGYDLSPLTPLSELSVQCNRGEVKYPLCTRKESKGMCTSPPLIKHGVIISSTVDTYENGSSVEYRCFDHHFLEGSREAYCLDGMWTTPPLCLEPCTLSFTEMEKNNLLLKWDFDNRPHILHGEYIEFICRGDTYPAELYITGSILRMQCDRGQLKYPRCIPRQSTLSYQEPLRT

Row | Substance | cleavage of FXIII A chain, SDS-PAGE (method B), 37°C 3 hours [1] | cleavage of FXIII A chain, SDS-PAGE (method B), 37°C [1] | clot formation from Fbgn (method C), 37°C 3 hours (fibrinogen)
1 | 203A205A99N thrombin (glycine 203 to alanine, serine 205 to alanine, aspartic acid 99 to asparagine in B chain) | no band of an A chain-activated product of FXIII was observed |  | 
2 | 203A205A thrombin (glycine 203 to alanine, serine 205 to alanine in B chain) |  | No band of A chain-activated product of FXIII was observed even in lane 6 which was obtained after 3 hour-incubation | 
3 | 203A205G thrombin (glycine at position 203 in B chain substituted by alanine, serine at position 205 substituted by glycine) |  | No band of an A chain-activated product of FXIII was observed in the sample (lane 6) which was obtained after 3-hour incubation | no clot formation was observed
4 | 203A thrombin (glycine at position 203 in B chain substituted by alanine) |  | The A chain of FXIII was observed to provide a cleaved product 30 minutes later, and more than half of the A chain was cleaved after three hours | a clot was formed after three hours
5 | 205A43S thrombin (serine 205 to alanine, histidine 43 to serine in B chain) | no band of A chain-activated product of FXIII was observed |  | 
6 | 205A99N thrombin (serine 205 to alanine, aspartic acid 99 to asparagine in B chain) | no band of an A chain-activated product of FXIII was observed |  | 
7 | 205A thrombin (serine at position 205 in B chain substituted by alanine) |  | Even 3 hours later, no A chain of activated FXIII was observed as shown in lane 8 | 
8 | 205G43A thrombin (serine 205 to glycine, histidine 43 to alanine in B chain) | no band of an A chain-activated product of FXIII was observed |  | 
9 | 205T thrombin (serine at position 205 in B chain substituted by threonine) | A chains of almost all FXIII were activated in a similar manner as that of the wild-type thrombin, and bands of cleaved FXIII were observed |  | 
